Target: HPV 16 E6 C-terminal PL peptide (TQL), biotinylated (HPV 16)
Assay: G assay, HPV16 E6 PL peptide titrated against a constant amount of GST-PDZ

Sequence of GST-SAST1 KIAA PDZ domain (Q9Y2H9 other isoform, or with tags, fused parts or gaps): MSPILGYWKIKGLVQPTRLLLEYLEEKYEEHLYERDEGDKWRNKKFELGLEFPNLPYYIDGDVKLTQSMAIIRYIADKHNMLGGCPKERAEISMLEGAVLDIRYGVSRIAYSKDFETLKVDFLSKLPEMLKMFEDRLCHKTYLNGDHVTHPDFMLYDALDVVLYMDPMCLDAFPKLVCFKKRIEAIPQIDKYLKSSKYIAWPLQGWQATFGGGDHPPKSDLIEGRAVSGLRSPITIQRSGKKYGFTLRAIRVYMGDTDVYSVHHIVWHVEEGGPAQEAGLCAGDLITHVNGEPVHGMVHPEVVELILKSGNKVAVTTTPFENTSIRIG
Sequence of GST-Magi3 PDZ domain 1 (Q5TCQ9 other isoform, or with tags, fused parts or gaps limits assumed): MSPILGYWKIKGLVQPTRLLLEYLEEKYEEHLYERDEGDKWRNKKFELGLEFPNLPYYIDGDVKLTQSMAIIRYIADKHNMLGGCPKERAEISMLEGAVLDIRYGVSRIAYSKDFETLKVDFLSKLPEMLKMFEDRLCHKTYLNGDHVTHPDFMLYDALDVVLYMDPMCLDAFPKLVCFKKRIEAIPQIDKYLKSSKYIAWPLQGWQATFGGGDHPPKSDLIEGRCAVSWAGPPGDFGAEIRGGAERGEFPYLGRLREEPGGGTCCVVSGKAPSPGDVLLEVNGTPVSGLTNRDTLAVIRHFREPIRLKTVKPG
Sequence of GST-DLG3 PDZ domains 1-2 (Q92796 other isoform, or with tags, fused parts or gaps limits assumed): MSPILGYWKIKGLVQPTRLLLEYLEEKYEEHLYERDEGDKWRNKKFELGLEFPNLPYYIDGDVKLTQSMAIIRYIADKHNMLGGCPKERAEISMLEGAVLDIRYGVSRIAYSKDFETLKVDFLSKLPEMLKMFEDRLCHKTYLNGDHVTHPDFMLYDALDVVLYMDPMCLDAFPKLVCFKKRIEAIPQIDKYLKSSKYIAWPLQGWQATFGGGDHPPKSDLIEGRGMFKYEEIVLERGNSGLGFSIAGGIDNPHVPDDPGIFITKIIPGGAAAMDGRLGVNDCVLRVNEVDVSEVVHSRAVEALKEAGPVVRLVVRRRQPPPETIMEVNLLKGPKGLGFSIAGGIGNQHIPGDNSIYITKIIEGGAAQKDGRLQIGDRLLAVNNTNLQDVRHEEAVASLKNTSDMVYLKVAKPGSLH

Substance | EC50
GST-MAGI1 PDZ domain 2 | 56 nM
GST-DLG3 PDZ domains 1-2 (from UniProt Q92796 125-316) | 3800 nM
GST-VARTUL (PDZ domain not stated) (from UniProt Q14160 720-955) | 940 nM
GST-SIP1 PDZ domain 1 | 7500 nM
GST-Magi3 PDZ domain 1 (from UniProt Q5TCQ9 18-106) | 310 nM
GST-SAST1 KIAA PDZ domain (from UniProt Q9Y2H9 960-1062) | 580 nM
GST-SAST2 PDZ domain | 1200 nM
GST-DLG2 PDZ domain 3 | 1600 nM
